According to article PMC12510318:

Assays:
Assay in all cases: EMSA
Conditions in all cases: EMSA: 6 ng 32P-satBaMV riboprobe, 2 U RNasin, 15 ul CAPS buffer (pH and salt not given), 20 min on ice; 4-12% NuPAGE in MES buffer at 4 C
[1] = tested on: rP20 WT (bamboo mosaic virus satellite RNA (satBaMV))
[2] = tested on: rFIB D227A (Nicotiana benthamiana)
[3] = tested on: rFIB K256A (Nicotiana benthamiana)
[4] = tested on: rFIB (NbFIB2) WT (Nicotiana benthamiana)
[5] = tested on: rFIB K134A (Nicotiana benthamiana)
[6] = tested on: rFIB triple mutant (Nicotiana benthamiana)

In the case of satBaMV riboprobe, the Kd [1] is reported as 32 nM, the Kd [2] is reported as 350 nM and the Kd [3] is reported as 350 nM. The Kd [4] was 50 nM, the Kd [5] was 140 nM and the Kd [6] was 1230 nM.
